In PMC9843812, “The ybcF Gene of Escherichia coli Encodes a Local Orphan Enzyme, Catabolic Carbamate Kinase” (Journal of Microbiology and Biotechnology, 2022):

Legend:
[1] = substrate: Nc1ncnc2c1ncn2[C@@H]1O[C@H](COP(=O)(O)OP(=O)(O)O)[C@@H](O)[C@H]1O; assay: ATP formation measured by firefly luciferase luminescence, Michaelis-Menten / Lineweaver-Burk; type: biochemical, Escherichia coli; details: 2 mM CP fixed, ADP 0-3 mM, 30 mM MgCl2, 20 mM Tris-Cl pH 8, 28 °C, 60 min, 100 nM enzyme
[2] = substrate: NC(=O)OP(=O)(O)O; assay: as above; type: biochemical, Escherichia coli; details: 2 mM ADP fixed, CP 0-3 mM, 30 mM MgCl2, 20 mM Tris-Cl pH 8, 28 °C, 60 min, 100 nM enzyme

B1: YbcF (catabolic carbamate kinase, CK; proposed AllK) (Escherichia coli K-12) (protein)
chain: MKTLVVALGGNALLQRGEALTAENQYRNIASAVPALARLARSYRLAIVHGNGPQVGLLALQNLAWKEVEPYPLDVLVAESQGMIGYMLAQSLSAQPQMPPVTTVLTRIEVSPDDPAFLQPEKFIGPVYQPEEQEALEAAYGWQMKRDGKYLRRVVASPQPRKILDSEAIELLLKEGHVVICSGGGGVPVTDDGAGSEAVIDKDLAAALLAEQINADGLVILTDADAVYENWGTPQQRAIRHATPDELAPFAKADGSMGPNVTAVSGYVRSRGKPAWIGALSRIEETLAGEAGTCISL
Km [1]: 430 µM
Km [2]: 470 µM
